The values that follow come from US5326856A, “Bifunctional isothiocyanate derived thiocarbonyls as ligands for metal binding” (Cytogen Corporation, priority 1992, dated 1994).

Broadly, the IC50 is the concentration needed to halve the response being measured. Lower therefore signals greater potency in that assay.

Data set [1] deals with clot. Description: Gamma camera thrombus imaging in rabbits. As to conditions: FIG. 8. The class given is in vivo, New Zealand White rabbits. The method, then:
(§1) The specificity of uptake of Tc-99m labeled peptide […]-chelating agent A conjugate into rabbit thrombi was determined by directly comparing tissue uptake and images obtained in animals with an induced thrombus to those receiving a sham operation without induced thrombus.
Two groups of 3 rabbits were used. All animals were subjected to surgery to expose the superficial jugular vein as described in detail below. In the first group of animals, the jugular veins were clamped off and a silk thread was inserted into the jugular veins. These veins also received an injection of 10 units of bovine thrombin in 0.1 ml isotonic saline directly into the vein. […]
The peptide-chelating agent conjugate prepared as in Section 9, supra, was radiolabeled with Tc-99m as follows: Tc-99m was eluted from a molybdenum generator and adjusted to 40 mCi/ml with isotonic saline. […] After this incubation period the material was drawn into an appropriately labelled 5 ml syringe and a sample was analyzed by instant thin layer chromatography (ITLC) to determine radiochemical purity as described in Section 9, supra. This material was acceptable for injection into rabbits only if the radiochemical purity was ≥95% and the amount of radioactivity available for injection was within 20% of that required by this protocol (e.g., 4.8-7.3 mCi). […]

The test system of data set [2] is clot. Description: Biodistribution by dissection in rabbits with induced thrombus. As to conditions: for 99M Tc / % ID/G (percent of injected dose per gram of tissue) / TISS:BLD / TISS:MUSC: 4 h after injection. The class given is in vivo, New Zealand White rabbits. The method, then:
as §1
Two groups of 3 rabbits were used. All animals were subjected to surgery to expose the superficial jugular vein as described in detail below. In the first group of animals, the jugular veins were clamped off and a silk thread was inserted into the jugular veins. These veins also received an injection of 10 units of bovine thrombin in 0.1 ml isotonic saline directly into the vein. The second (sham control) group of animals was subjected to the same surgical procedures as the experimental group except that no silk was inserted into the veins of these animals and the veins received an injection of 0.1 ml isotonic saline only. Due to logistical difficulties in handling six animals at one time, the experiment was conducted in three parts, each part consisting of one sham and one thrombus-induced animal done in parallel on each of 3 days. Specific pathogen-free New Zealand White rabbits (2-2.6 kg) were used.
The model system of Collen et al. (1983, J. Clin. Invest. 71:368-376) was used (with minor modifications described below) to induce experimental thrombi in rabbits. The animals were anesthetized by intramuscular injection of 40 mg/kg ketamine-HC1 and 4 mg/kg acepromazine maleate. Just prior to surgery, the animals received 10 mg/kg sodium pentobarbital, which was also administered as needed during the course of the surgery. The neck area was shaved and swabbed with disinfectant. The jugular vein was exposed by making about a 5 cm paramedial incision, the vein was freed from tissues over about a 4 cm distance (up to the main bifurcation of the facial vein) and the side branches of the jugular were ligated. A 1-inch segment was clamped off with hemostats and, in the experimental (group 1) animals, a silk thread was placed longitudinally inside the vein and was tied off at each end. No suture was placed in the veins of sham control (group 2) animals. Ten (10) units of bovine thrombin in 0.1 ml of isotonic saline (or saline alone in sham control animals) was injected into the clamped vein segment using a 27 gauge needle. Thirty minutes later, the animals were given an intravenous injection (in the contralateral marginal ear vein) of a mixture of 2-7 μCi of Tc-99m labelled peptide-chelating agent conjugate.
The peptide-chelating agent conjugate prepared as in Section 9, supra, was radiolabeled with Tc-99m as follows: Tc-99m was eluted from a molybdenum generator and adjusted to 40 mCi/ml with isotonic saline. Fifty (50) mCi of this preparation was transferred to a Glucoscan vial (Dupont, Billerica, MA) and mixed. Six (6) mCi of Tc-99m/glucoscan mixture was then added to a vial containing 50 μg of the peptide-chelating agent conjugate and incubated for 1 h at room temperature. After this incubation period the material was drawn into an appropriately labelled 5 ml syringe and a sample was analyzed by instant thin layer chromatography (ITLC) to determine radiochemical purity as described in Section 9, supra. This material was acceptable for injection into rabbits only if the radiochemical purity was ≥95% and the amount of radioactivity available for injection was within 20% of that required by this protocol (e.g., 4.8-7.3 mCi).
All animals were dissected 4 h (240 min) after injection. A 3 ml blood sample was drawn, after which the animals were euthanized with an i.v. injection of T-61 euthanasia solution (American Hoechst, Sommerville, N.J.). The vein segment was surgically removed and the thrombus therein (if any) was isolated from the vein. A segment of the contralateral vein was also removed and a sample of muscle was obtained from an area of the neck distal to the surgical field. […]

The test system of data set [3] is activated platelets. Description: Aggregometer assay. Type of data set: cell-based.

Ends that are not written are not given here. chelating agent A = 3,5-di-(1-trimethylammoniumacetyl)-4-thiosemicarbazidobenzoic acid, dichloride salt

On to “Tc-99m-labeled SYRGDVRGDF-chelating agent A conjugate: peptide-chelating agent conjugate prepared as in Section 9, radiolabeled with Tc-99m (SYRGDVRGDF-NH2; not fully specified (N-terminus); also: chelating agent A conjugate, site not given here, Tc-99m labelled (metal complex))”, for which, in data set [1] (2 hours and 4 hours), the “localization to clot in gamma camera imaging” value is reported as “localization of Tc-99m-labeled SYRGDVRGDF-chelating agent A conjugate to a clot”. Besides, in data set [1] (gamma camera image), the “blood pool accumulation, area of the head” value is “blood pool accumulation of peptide-chelating agent A, which is non-specific”. Further, in data set [2] (Blood), the “99M Tc” value is on record as 318229 and the “% ID/G (percent of injected dose per gram of tissue)” value turned out to be 0.0399 % ID/G. For the same substance, in data set [2] (Clot (Target)), the “99M Tc” value is 94319, the “% ID/G (percent of injected dose per gram of tissue)” value amounted to 0.3312 % ID/G, the “TISS:BLD” value is reported as 28.30 and the “TISS:MUSC” value was 27.83. Further, in data set [2] (Muscle), the “99M Tc” value is listed as 22369 and the “% ID/G (percent of injected dose per gram of tissue)” value is on record as 0.0119 % ID/G. In addition, in data set [2] (Vessel), the “99M Tc” value was determined as 95629, the “% ID/G (percent of injected dose per gram of tissue)” value turned out to be 0.0870 % ID/G, the “TISS:BLD” value was 2.18 and the “TISS:MUSC” value was found to be 7.28. The “clot % ID/G relative to blood” value in data set [2] (clot vs blood) turned out to be 8 fold. Moreover, in data set [2] (clot vs blood vessel), the “clot % ID/G relative to the blood vessel” value was determined as 4 fold. Moreover, in data set [2] (clot, percent of injected dose per gram of tissue), the “% ID/G for the clot” value turned out to be 0.33%.

In data set [3], SYRGDVRGDF [reference compound] registered an IC50 of 28.8 µM.

“Chelating Agent A-NH-SYRGDVRGDF: chelating agent A coupled with SYRGDVRGDF-NH2 peptide ({chelating agent A}-SYRGDVRGDF-NH2)” displayed an IC50 in data set [3] of 19.3 µM. The “clot-binding potency relative to the native peptide” value in data set [3] (relative to native peptide) is recorded as “full or even enhanced clot-binding potency”.
